# US20200339702A1 (ULTRAHUMAN THIRTEEN, published 2020)
# T1: rhesus monkey ERBB3 human Fc tagged recombinant protein (rhesus monkey (Macaca mulatta), UniProt P21860 20-643 (human entry), limits assumed)
# T1 construct: also called rhesus ERBB3-Fc; rhERBB3
# T1 chain: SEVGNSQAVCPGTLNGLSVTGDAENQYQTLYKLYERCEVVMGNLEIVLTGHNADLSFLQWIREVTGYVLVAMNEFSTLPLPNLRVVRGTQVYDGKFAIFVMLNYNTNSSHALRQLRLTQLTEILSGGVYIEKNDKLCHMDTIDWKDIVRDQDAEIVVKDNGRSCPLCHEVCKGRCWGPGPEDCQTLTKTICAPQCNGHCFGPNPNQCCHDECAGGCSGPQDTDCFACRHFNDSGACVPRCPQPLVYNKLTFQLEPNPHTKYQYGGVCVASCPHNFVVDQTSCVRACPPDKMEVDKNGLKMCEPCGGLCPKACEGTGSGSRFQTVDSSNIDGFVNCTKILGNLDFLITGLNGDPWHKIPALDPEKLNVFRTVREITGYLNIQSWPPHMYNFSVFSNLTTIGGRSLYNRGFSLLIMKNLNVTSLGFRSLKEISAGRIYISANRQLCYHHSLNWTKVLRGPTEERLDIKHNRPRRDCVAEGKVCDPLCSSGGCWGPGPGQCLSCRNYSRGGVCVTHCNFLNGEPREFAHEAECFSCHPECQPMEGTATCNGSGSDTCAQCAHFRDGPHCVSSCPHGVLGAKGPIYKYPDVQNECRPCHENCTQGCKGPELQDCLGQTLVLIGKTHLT
# T2: rhesus ERBB3 on transiently transfected HEK-293 cells (rhesus monkey (Macaca mulatta), UniProt P21860 20-1342 (human entry))
# T2 construct: also called rhesus ERBB3+ HEK-293 cells
# T2 chain: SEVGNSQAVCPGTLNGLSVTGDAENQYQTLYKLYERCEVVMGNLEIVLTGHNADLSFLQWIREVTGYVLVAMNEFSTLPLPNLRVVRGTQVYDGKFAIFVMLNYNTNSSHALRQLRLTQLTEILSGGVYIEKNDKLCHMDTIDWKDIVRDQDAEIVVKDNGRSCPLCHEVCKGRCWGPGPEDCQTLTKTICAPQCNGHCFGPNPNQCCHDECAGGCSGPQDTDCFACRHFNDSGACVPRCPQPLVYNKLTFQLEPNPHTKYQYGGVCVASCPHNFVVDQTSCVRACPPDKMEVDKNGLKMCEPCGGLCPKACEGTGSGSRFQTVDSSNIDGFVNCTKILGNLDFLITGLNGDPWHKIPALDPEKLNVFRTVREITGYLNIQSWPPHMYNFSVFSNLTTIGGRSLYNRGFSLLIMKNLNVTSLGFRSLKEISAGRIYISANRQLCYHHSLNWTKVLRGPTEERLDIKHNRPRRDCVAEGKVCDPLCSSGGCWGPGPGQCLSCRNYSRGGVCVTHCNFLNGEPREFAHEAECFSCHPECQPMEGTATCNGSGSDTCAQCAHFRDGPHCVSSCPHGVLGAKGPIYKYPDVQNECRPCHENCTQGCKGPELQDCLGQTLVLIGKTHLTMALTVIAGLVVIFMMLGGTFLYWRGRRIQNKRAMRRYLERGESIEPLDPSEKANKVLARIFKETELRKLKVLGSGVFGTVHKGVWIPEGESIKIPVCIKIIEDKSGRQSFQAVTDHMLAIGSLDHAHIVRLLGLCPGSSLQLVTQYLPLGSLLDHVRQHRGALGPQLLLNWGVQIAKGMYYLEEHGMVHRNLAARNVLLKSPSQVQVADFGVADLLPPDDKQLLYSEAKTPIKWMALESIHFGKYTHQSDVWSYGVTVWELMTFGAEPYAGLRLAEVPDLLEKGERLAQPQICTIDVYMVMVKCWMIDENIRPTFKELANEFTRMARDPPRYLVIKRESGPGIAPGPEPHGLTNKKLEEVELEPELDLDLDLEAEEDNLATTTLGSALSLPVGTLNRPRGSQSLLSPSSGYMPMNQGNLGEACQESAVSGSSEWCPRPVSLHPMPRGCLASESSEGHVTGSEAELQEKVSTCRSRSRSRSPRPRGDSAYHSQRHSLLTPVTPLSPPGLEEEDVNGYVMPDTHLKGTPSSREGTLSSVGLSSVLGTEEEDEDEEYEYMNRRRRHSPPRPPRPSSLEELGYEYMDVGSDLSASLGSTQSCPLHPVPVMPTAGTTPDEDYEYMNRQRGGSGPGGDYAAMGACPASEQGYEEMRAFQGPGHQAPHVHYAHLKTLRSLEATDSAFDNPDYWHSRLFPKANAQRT
# B1: 09D12 IgG1null (antibody, V domains shown)
# VH: QVQLVESGGGLVKPGGSLRLSCAASGFTFSDYGMSWIRQAPGKGLEWVSTISDGGSYTYYADSVKGRFTISRDNAKNSLYLQMNSLRAEDTAVYYCAREYGDYDGFDYWGQGTLVTVSS
# VL: DIQMTQSPSSLSASVGDRVTITCRASQSISSYLNWYQQKPGKAPKLLIYAASSLDSGVPSRFSGSGSGTDFTLTISSLQPEDFATYYCLQYDSTPLTFGGGTKVEIK
# notes: Human IgG1null and human Ckappa
# B2: TTP IgG1null (antibody, V domains shown)
# VH: QVQLVESGGGLVKPGGSLRLSCAASGFTFSDYGMSWIRQAPGKGLEWVSTISDSGSTIYYADSVKGRFTISRDNAKNSLYLQMNSLRAEDTAVYYCAREYGDYDGFDYWGQGTLVTVSS
# VL: DIQMTQSPSSLSASVGDRVTITCRASQSISSYLNWYQQKPGKAPKLLIYAASSLQSGVPSRFSGSGSGTDFTLTISSLQPEDFATYYCLQYDSTPLTFGGGTKVEIK
# notes: Designer clone; Human IgG1null and human Ckappa; also called Total Theoretically Possible clone
# Tests used:
# [1] = biological target: T3, human ERBB3 human Fc tagged recombinant protein (human, UniProt P21860 20-643); assay: direct binding ELISA on coated human ERBB3-Fc, IgG1null titrated
# T3 construct: also called human ERBB3-Fc; huERBB3
# Method: (§1) Binding and cross-reactivity of the lead panel to the recombinant proteins was initially assessed by binding ELISA. The human ERBB3 human Fc tagged recombinant protein and the rhesus monkey ERBB3 human Fc tagged recombinant protein were coated to the surface of MaxiSorp™ flat-bottom 96 well plate at 1 μg/ml. The purified IgG samples were titrated in two fold serial dilutions starting from 500 nM to 0.008 nM and allowed to bind to the coated antigens. The Fabs were detected using mouse anti-c-myc antibody followed by donkey anti-mouse IgG conjugated to horseradish peroxidase. The IgGs were detected using the mouse anti-human IgG conjugated to horseradish peroxidase. Binding signals were visualized with 3,3′,5,5′-Tetramethylbenzidine Substrate Solution (TMB) and the absorbance measured at 450 nm.
# [2] = biological target: T1, rhesus monkey ERBB3 human Fc tagged …; assay: direct binding ELISA on coated rhesus ERBB3-Fc, IgG1null titrated
# Method: as §1
# [3] = biological target: T4, human ERBB3 on transiently transfected HEK-293 cells (human, UniProt P21860 20-1342); assay: flow cytometry, human ERBB3-transfected HEK-293
# T4 construct: also called human ERBB3+ HEK-293 cells
# Method: (§2) Purified IgGs were tested in FACs for binding to human and rhesus monkey ERBB3 expressed on transiently transfected HEK-293 cells and HEK-293 wild-type cells. The IgG samples were titrated in three-fold serial dilutions starting at 500 nM to 0.008 nM. Binding of IgGs was detected with a mouse anti-human IgG conjugated to FITC. Results were analyzed by examining the Mean Fluorescence Intensity (MFI) of 10000 cells per sample in the BL-1 channel detector of a flow cytometer (Attune™ NxT Acoustic Focusing Cytometer, Invitrogen/ThermoFisher Scientific).
# (§3) Antibodies to ERBB3 were analysed for concentration-dependent binding at the cell surface via flow cytometry. HEK-293 cells were transiently transfected with either human or rhesus ERBB3 full-length cDNAs. Anti-ERBB3 IgGs and an isotype control were then all tested in IgG1null format, over a concentration range of 500-0.008 nM for binding to human (FIG. 5A) and rhesus (FIG. 5B) transfected cells.
# [4] = biological target: T2, rhesus ERBB3 on transiently transfected …; assay: flow cytometry, rhesus ERBB3-transfected HEK-293 cells, IgG1null titrated
# Method: as §2, §3
Binder,EC50 (read off the curve) [1] [nM],EC50 (read off the curve) [2] [nM],"maximum MFI, fold over isotype control background [3] [fold]",EC50 (read off the curve) [4] [nM]
B1,~0.2,~0.1,> 20,~0.4
B2,~0.3,~0.2,> 20,~0.9
